Laboratory results reported in the DeepSol protein solubility set.

experiment: soluble on expression in E. coli; label from the status in PepcDB or PDB records

Q: With “MGKKRKHQDSDSEQSGKRVKKVEEARNGVADMTIDESSDFQVFLIKKPIGVSLEDLEALKWSNDEEVLTKTKLKTESGVFRAIVAPKSKKERMVHIPAFREREEADSKNIKAQSFVTGAITILPQEVKPKVLGGFIYEEGEEPVEGSSEVHPGLKKIKKTAILDLESRQQRNKAYGTTTEGDGKPRKLANIIEKMN” as the sequence, how does the “soluble on expression in E. coli” value read?
A: soluble

Q: With “MVAVYDVEFPLPLNTQPMEARAAGVLPRDDGPWQYEPKWDGFRCLAFKAGKAVDLRAKSGKPLGRYFPELMAALSALAATEFVIDGEIIIEIEGRASFDALQMRLHPAESRIRKLSRETPARLVVFDMLVAPEGRPRMELPLRDRRAEAEDLVAKAKTKTLRLSPATTSLATADNWLKGAGSGSIDGVVAKLLNGPYRPGERAMVKVKRLRTADCVVGGFRYLNGKRQVGSLLLGLYNGDGLLDHVGFTSTIANDERAVLTEKLENLRGGSGFTGKAPGGPSRWSTERSGEWEPVRPELVVEVRFDHVTGDRFRHGTKLVRWRPDKAPLQCTFEQLELEHHHHHH” as the sequence, how does the “soluble on expression in E. coli” value read?
A: soluble

Q: With “SMFIKKIKAKANNNEINVIIEIPMNSGPIKYEFDKESGALFVDRFMQTTMSYPCNYGFIPDTLSNDGDPVDVLVVAHHPVVPGSVIKCRAIGVLMMEDESGLDEKIIAVPTSKLDITFDHIKELDDLCEMLKKRIVHFFEHYKDLEKGKWVKVTGWGDKVKAETLIKEGIDRN” as the sequence, how does the “soluble on expression in E. coli” value read?
A: soluble

Q: Which “soluble on expression in E. coli” value does the source give for “MESEFLYDLLQLPKEVAQPTEEELPRGGKKKYLSPNSKRNPKFEELQKVLMEWINTTLLPEHIVVRSLEEDMFDGLILHHLFQKLASLKLEVEEISLTSASQRHKLGVILEAVNQNLQVEEKQAKWSVETIFNKDLLATLHLLVALAKRFQPDLPLPDNVQVEVIHIESTKTGLKSDKQVEQLTECKSHKDQPLQDAFDELFKLAPEKVHAVQEAIVSFVNQKLERLGLSVQSLDTQFADGVILLLLIGQLEGFFLHLTEFYLTPSSPTEMLHNVTLALDLLKDEGLFSYPVNPEDIVNKDAKSTLRILYSLFQKHSLRAEGGGAHHATPN” here?
A: soluble

Q: For “MSNVSSETVNLNNTSIVHMNMSNVTKLTASNYIMWSRQVHALLHGYGLTQYLDATKAAPAREITVNDVASVNPEYEAWSRQDQLIFSALIGTLSLTVQPTVSRAATSADVWATLAGTYAKPSRGHIKQLQHQIKQWKKDTRTIDEYVQGFINRFDQLALIGKIIDHEDQVDYILGGLPEDYKPIVDQMEGRDTPPNGCLTNSCDEDGCFIQMALNSV”, which “soluble on expression in E. coli” value is on record?
A: soluble

Q: With “MGSDKIHHHHHHMTHDDVIQAIVNTIRDVPGIRALFLSGSYGNGLADEYSDIDFVLVSEDGATDAVAEAWRNAVEKTGEIVLWWDRTTVPVLINAITEDWTRTDVIILKPDQMGRQTKDALKPLFDHDNIYDTLKDAAPKPGPDLKRFRYEVEEFIRILGLLQLAVGREEYINGVLGVSLLRSKLVNLLIEETDAPNRGGILHLNRLITEDQKQVLISLPPAVPERDAMISAHLAYAAAYLPRARRRAERLGMEWPERFEAVTWSRLEKTLSIRRPYD” as the sequence, how does the “soluble on expression in E. coli” value read?
A: not soluble

Q: Which “soluble on expression in E. coli” value does the source give for “MTDDRVEQVLEAARRLVAAFARNDAEAYFAAFSEDASFIFHNWPQPLRSRAAYRKLWERWRREDGFEVLACESSNTCVSLQGDLAIFSHDVATRLRLQGTESLNRERETILFRLEQQEGRWLACHEHLSAMPEYLPSTS” here?
A: not soluble

Q: Which “soluble on expression in E. coli” value does the source give for “MGSDKIHHHHHHENLYFQGMRDHVEIGIGREARRTYSLDDISVVSSRRTRSSKDVDTTWHIDAYKFDLPFMNHPSDALASPEFVIEMGKQGGLGVINAEGLWGRHADLDEAIAKVIAAYEEGDQAAATRTLQELHAAPLDTELLSERIAQVRDSGEIVAVRVSPQNVREIAPIVIKAGADLLVIQGTLISAEHVNTGGEALNLKEFIGSLDVPVIAGGVNDYTTALHMMRTGAVGIIVGGGENTNSLALGMEVSMATAIADVAAARRDYLDETGGRYVHIIADGSIENSGDVVKAIACGADAVVLGSPLARAEEAAGKGYFWPAVAAHPRFPRGVVTESVDLDEAAPSLEQILHGPSTMPWGVENFEGGLKRALAKCGYTDLKSFQKVSLHVN” here?
A: soluble

Q: With “MGSDKIHHHHHHMDNLLSIKSLCDEDIDFVTEISRKEGFAPGVGDLRIYQNTDKQGLWVGWLDNNPIGCIAGVRYNQYYGFLGLFLVIEEYRGRGFGLQLWKKALSHLSDLPCVGLEAAPERITDYSKWGFTISSKTTRWQLLGDGKLVEEYSKNDDFDDFSFVEGSSIPQDAVKKFDEKRETTPRPHFLSNWLNHPAGKVIAVIDKKNCCHGFGRIRPCLLQNGDGWRIGPLMADTPMLLQILLKKLIESHPGLIIIDAPGLNKSASEVFRKLGFKSESETFRMYRGSQPPVSMNDVYGLACLELG” as the sequence, how does the “soluble on expression in E. coli” value read?
A: not soluble

Q: For “MQSASDGFSKMIKTLLYITPDPCPECGGNLYAWRAKNKDGSDRCPPTCMECGYKARKKAEDLETEKMFNDSLKARAINYLKYSSLYTDKNLINCRFKTYKTVDTETKLAFEIANRATTEILLNKPIHMILSGKSGVGKSHLAMSTAWEVLEKSNYDKRCLFISYAELLEQLKFAMNDEQARKEITGSLMAEIKSADLVVLDDLGAELGVKQIDDRNKSTNFNNDTLNRIVEARQNKATIFTTNLTGKEMSQAYGERILSRIMSNSQGFVMKIEGTSDKRVAGILEHHHHHH”, which “soluble on expression in E. coli” value is on record?
A: soluble

Q: With “MLINKTKRAEQNLNNLPFLALQAEQIEFLGSSAEFKTQIIELIRNAKKRIYVTALYWQKDEAGQEILDEIYRVKQENPHLDVKVLIDWHRAQRNLLGAEKSATNADWYCEQRQTYQLPDDPNMFFGVPINTREVFGVLHVKGFVFDDTVLYSGASINNVYLHQFEKYRYDRYQKITHAELADSMVNFINDYLLDFSAVYPLDVTNRPRTKEIRGNIRAYRKDLAQNGEYSLKSAVKLPNVLSVSPLFGLGASGNELNQVIEDLFLQVQKKLVICTPYFNFPRTLQHKIATLLENGKRVEIIVGDKVANDFYIPPEQPFKMAGALPYLYESNLRRFCEKFETQIESGQLVVRLWRDGDNTYHLKGVWVDDRYILLTGNNLNPRAWRLDAENGLLIYDPQQQLLAQVEKEQNQIRQHTKVLKHYTELEELNQYPEPVQKLLKKFARIKADKLVKMILAAALEHHHHHH” as the sequence, how does the “soluble on expression in E. coli” value read?
A: soluble

Q: Which “soluble on expression in E. coli” value does the source give for “MGSDKIHHHHHHMQISNEDYEQLKPLLFSLGYRLLGSVTDAEDLVQETFLRAYQAEEREINNKKAYLCKMMTNRCLDVLKSARRKREQYVGPWLPEPLLITSDDPSEAILQKEGLSMAYLRMMEHLTPHERAVFLLREVFTFSYREIASMMEKKEDNCRKLYSRAKEKLSAVKGESLHYENNRSVVDRFIHSFQTEDQGDLLELLSDHVTLYTDGGGKVRAALRPIYTKDHVAAFLFGIAKKRPNDFYVEVKNVNGQPALISYADSKLYNVICFYIVGGQIQDIYIIMNPEKLPSNG” here?
A: not soluble

Q: Which “soluble on expression in E. coli” value does the source give for “MTEPGERRRRTTSTATRERGVRDARDAARRAADALSELIRHHLEGVSAVCRGEDGGWIVNVDVLEVARIPDTTSLLATYEVELDPAGDLLQYRRIARYRRGAQDQLEHHHHHH” here?
A: not soluble

Q: Which “soluble on expression in E. coli” value does the source give for “KKLNDFQEDAVNTILYSNKRKFLIHGVTGSGKTEIYMHLVKKMIEDNKQSIILVPEISLTPQMIERFKGRFGLNVAVFHSKLSDGERYDEWIRVKNGEVKVAVGARSALFLPFDKLGLIVIDEEHEGSYKSESDPKYNAIEVAEMKSAIEDCILVLGSATP” here?
A: not soluble

Q: With “MSLEREVCVNQLLKFLDSIRGRLSFRMVERLFSRGLDENPIFEAISKSGALAKNVIIILGGRGCGKTLVMRYIKHYFEPEGWDYKYFSGDQFKEADAQELMKIISETRDLLENSEDYKVIVGIDDVVEASEAIRDTIKNQLVPLVVDYAGRIKLVISGQSERVVGTTTVLHILEDTLGRSPKAEMLFGEYPGEGHHHHHH” as the sequence, how does the “soluble on expression in E. coli” value read?
A: soluble

Q: Which “soluble on expression in E. coli” value does the source give for “MSLDIVLVGCKGFGKEHLRIYSKLGYDVSIVERDSNEAKRCSELFRVYKVYDNYEDALRSGSNIVDLVVPDGLHYEMGSLALKSKKHLLVEKPITPDIDSGISLIQQAEESKLKLMVAEQFYFDPSVNEAIRRINNGEIGKPHTVIVRHQSFRELKGWRNEKSMMGRGILIDEGTHYIDTLLNFGGRYRSLRSFVHRTWDFLGEDTAEAVFNFENGMHGLFFYSWNYPEYPLLPEFEIIGDAGSIYEDIGTKPTEPWDQRKRKTAYGDIIVNGKHIPVEPYDVIEREISGFLNAVEKDEPVPMPPDLALRDIITIDRIYKASSDEGHHHHHH” here?
A: soluble
